To fix the notation:
B1: preproinsulin peptide C19-A3 (peptide)
peptide: GSLQPLALEGSLQKRGIV
notes: Synthetic peptide; also called PI C19-A3; Proinsulin C19-A3

The target in the assay is T1, HLA-DR4 immunoaffinity-purified from Priess EBV-transformed B cells (DRB1*0401).
T1 construct: Detergent-solubilised native protein, purified with the anti-HLA-DR mAb L243; Priess cells also carry DRw53, which the L243 column would not separate; The elution used cells pulsed with preproinsulin; also called soluble HLA-DR4
The experiment in a line: competition against 2.5 µM biotinylated invariant chain 98-117 for purified HLA-DR4, L243 capture, DELFIA. How it is done: A further selection step was applied based on the following novel initiative. […] HLA-DR4 molecules used in this assay were purified from resting, unmanipulated Priess cell pellets, using the immunoaffinity column approach described above in method 1.1. […] Plates were incubated for a further 1 hour at room temperature and washed 5 times in TBST. Europium-conjugated streptavidin (Perkin Elmer Ltd., Hounslow, UK) was added at 1 μg/ml in dissociation-enhanced time-resolved fluoroimmunoassays (DELFIA) assay buffer (Wallac Oy, Turku, Finland) and incubated for 45 minutes at room temperature. Wells were washed a further 5 times in TBST and 100 μl DELFIA enhancement solution added to each well. Fluorescent intensity was measured in a DELFIA fluorimeter.
In general, IC50 refers to the concentration that gives 50% inhibition. Read a high IC50 as weaker potency. EDLQVGQVELGGGPGAGSLQPLAL [preproinsulin peptide C3-C26] showed an IC50 of 3 µM.
As for QPLALEGSLQKRGIVEQ (Synthetic peptide) [preproinsulin peptide C22-A5], the figure is 0.4 µM.
On to DLQVGQVELGGGPGAGSLQPLALE [preproinsulin peptide C4-C27], for which the IC50 was 3 µM.
The result for B1 reads 0.5 µM.
The molecule GGGPGAGSLQPLALEGSLQK (Synthetic peptide; also called C13-32) [preproinsulin peptide C13-C32] returned an IC50 of 5 µM.

The record behind these values is patent publication US20060199228A1 (KING S COLLEGE LONDON, published 2006).
